# Data published in patent US20240254227A1 (Alector, published 2024).
# T1: murine CD300E-Fc (mouse)
# T1 construct: mouse IgG2a-Fc fusion (R&D Systems); the entry is the whole fusion chain; also called mCD300E; Mouse CD300E-Fc
# T1 chain: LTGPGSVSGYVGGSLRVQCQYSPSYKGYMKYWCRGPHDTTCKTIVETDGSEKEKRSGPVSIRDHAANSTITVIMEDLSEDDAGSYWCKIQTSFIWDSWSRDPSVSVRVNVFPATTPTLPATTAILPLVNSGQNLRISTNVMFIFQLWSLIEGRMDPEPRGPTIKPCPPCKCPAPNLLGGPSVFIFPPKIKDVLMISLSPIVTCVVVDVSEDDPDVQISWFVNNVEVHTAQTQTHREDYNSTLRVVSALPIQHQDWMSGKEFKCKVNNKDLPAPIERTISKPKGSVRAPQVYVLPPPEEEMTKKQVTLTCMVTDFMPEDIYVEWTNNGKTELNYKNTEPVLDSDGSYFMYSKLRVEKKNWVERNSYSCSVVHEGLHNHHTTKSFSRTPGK
# T2: murine CD300LB stably expressed on Jurkat cells (mouse, UniProt Q3U497 18-209)
# T2 construct: also called muCD300LB; mouse CD300LB
# T2 sequence: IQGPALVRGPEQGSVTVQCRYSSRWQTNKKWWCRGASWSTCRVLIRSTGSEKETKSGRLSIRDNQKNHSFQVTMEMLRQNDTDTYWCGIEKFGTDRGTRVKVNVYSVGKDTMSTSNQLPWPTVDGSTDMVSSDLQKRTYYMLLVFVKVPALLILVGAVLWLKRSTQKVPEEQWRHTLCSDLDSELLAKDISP
# T3: recombinant murine CD300LB overexpressed on BaF/3 cells (mouse, UniProt Q3U497 18-209)
# T3 sequence: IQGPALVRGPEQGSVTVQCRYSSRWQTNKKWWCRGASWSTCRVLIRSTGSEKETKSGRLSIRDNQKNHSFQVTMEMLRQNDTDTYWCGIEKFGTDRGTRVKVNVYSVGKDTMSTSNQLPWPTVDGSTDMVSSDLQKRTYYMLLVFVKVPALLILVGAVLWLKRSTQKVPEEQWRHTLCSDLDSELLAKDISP
# Key:
# murine CD300E-Fc = target: T1, murine CD300E-Fc; assay: SPR (Carterra LSA), antibody immobilised
# Description: (§1) In addition to the screening of antibodies for cross-reactivity by FACS analysis, surface plasmon resonance (SPR) analysis was used to determine the binding of antibodies to recombinant huCD300 and muCD300 family members (orthologs) conjugated to an Fc (human CD300A-Fc SEQ ID NO:144; human CD300LB-Fc SEQ ID NO:145; human CD300C-Fc SEQ ID NO: 146; human CD300D-Fc SEQ ID NO: 147; human CD300E-Fc SEQ ID NO: 148; human CD300F-Fc SEQ ID NO: 149; murine CD300A-Fc SEQ ID NO: 150; murine CD300LB-Fc SEQ ID NO:151; murine CD300C-Fc SEQ ID NO: 152; murine CD300D-Fc SEQ ID NO: 153, and murine CD300E-Fc SEQ ID NO: 154).
# (§2) Binding of mouse anti-CD300LB IgG1 antibodies of the present disclosure to human and murine CD300 orthologs were evaluated by surface plasmon resonance (SPR) using a Carterra LSA instrument (Carterra, Salt Lake City, UT). […] A HC200M sensor chip (Carterra) was activated using the single channel flow cell with a 7-minute injection of a 1:1:1 mixture of 100 mM MES pH 5.5, 100 mM sulfo-NHS, 400 mM EDC (all reconstituted in MES pH 5.5; 100 μL of each mixed in vial immediately before running assay). After switching to the multi-channel array flow cell, the antibodies were injected over the activated chip in a 96-spot array for 10 minutes. The remaining unconjugated active groups on the chip were then blocked by injecting 1M Ethanolamine pH 8.5 (Carterra) for 7 minutes using the single channel flow cell. After priming with running buffer (HBS-TE, Carterra) with 0.5 mg/ml BSA (Sigma), the immobilized anti-CD300LB antibodies were tested for their ability to bind human and mouse recombinant CD300LB extracellular domains. Human CD300 family members and mouse CD300A were hIgG1-Fc fusions, while mouse CD300LB, mouse CD300C, mouse CD300D, and mouse CD300E were mouse IgG2a-Fc fusions (R&D Systems). Binding was assessed by injecting each analyte over the entire antibody array using the single channel flow cell. CD300 analytes were diluted to 300 nM or 600 nM in running buffer and injected in series without regeneration. Two or three buffer blanks were run between each mouse or human ortholog, respectively. Data were processed and analyzed using NextGenKIT high-throughput kinetics analysis software (Carterra).
# murine CD300A-Fc = target: T4, murine CD300A-Fc (mouse); assay: SPR (Carterra LSA), antibody immobilised
# T4 construct: hIgG1-Fc fusion; the entry is the whole fusion chain; also called mCD300A; Mouse CD300A-Fc
# T4 sequence (chain, as listed by the source limits assumed): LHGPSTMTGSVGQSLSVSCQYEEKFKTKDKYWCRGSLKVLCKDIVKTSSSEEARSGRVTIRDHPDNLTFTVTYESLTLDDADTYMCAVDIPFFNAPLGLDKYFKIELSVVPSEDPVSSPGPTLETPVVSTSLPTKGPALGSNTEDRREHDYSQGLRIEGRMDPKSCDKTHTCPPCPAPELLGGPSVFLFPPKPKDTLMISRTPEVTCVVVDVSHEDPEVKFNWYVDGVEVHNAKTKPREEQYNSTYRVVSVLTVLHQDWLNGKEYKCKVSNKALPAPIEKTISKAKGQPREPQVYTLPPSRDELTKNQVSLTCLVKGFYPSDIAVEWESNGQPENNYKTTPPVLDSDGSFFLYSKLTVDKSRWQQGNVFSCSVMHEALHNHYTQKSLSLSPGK
# Description: as §1, §2
# [1] = target: T2, murine CD300LB stably expressed on …; assay: flow cytometry, stable Jurkat cells, supernatant or 10 ug/mL, isotype subtracted
# Protocol: Purified anti-CD300LB antibodies of the present disclosure were also evaluated for species cross-reactivity to mouse and human CD300LB stably expressed in Jurkat cells (generation of which is described above). Cells were counted and labeled with 200 nM CFSE, 500 nM VioBlue, or a combination of the two to discriminate between human CD300LB, Parental cells and mouse CD300LB. Cells were washed thoroughly with PBS containing 2% fetal bovine serum then resuspended at a total of 240,000 cells per well. Hybridoma supernatants (100 L) or purified antibodies at 10 μg/mL were added and incubated for one hour before the cells were washed again and stained with an APC-labeled anti-human or anti-mouse secondary. Cells were then analyzed using a BD FACSCanto II. Antibodies were analyzed for binding to mouse or human CD300LB by FlowJo software by gating on live cells, then the APC gMFI calculated for each labeled population by subtraction of the gMFI of the appropriate isotype control.
# [2] = target: T3, recombinant murine CD300LB …; assay: cell-based or functional assay
Binder,binding result (murine CD300E-Fc),binding result (murine CD300A-Fc),gMFI [1] [gMFI],Luminescence in BaF/3 [2]
"anti-CD300LB antibody CD-11 (antibody, V domains shown) VH: QIQLVQSGPEVKKPGETVKISCKASGYTLTDYSMHWVMQTPGTGLKWMAWMNTETGEPTYADDFKGRFAFSLETSAGTAYLQIDNLKNEDTATYFCATYGKSYGMKYWGQGTSVTVSS VL: DIVLTQSPPSLAVSLGQRATISCRATKSVSPYLHWYQQTPGQPPKLLIYLASNLDSGVPARFSGSGSGTDFTLNIHPVEEEDAATYYCQHNKELPPTFGGGTRLEIK",no binding (tested: 300 nM or 600 nM),no binding (tested: 300 nM or 600 nM),320,22400
"anti-CD300LB antibody CD-15 (antibody, V domains shown) VH: QIQLVQSGPELKKPGETVKISCQVSGYTFTDYSMHWLKQAPGKGLKWMAWINTETGESTYTDEFKGRFVFSLETSVRTAYLKINNLKNEDTATYFCGTYGSSYGMAYWGQGTSVTVSS VL: DIVLTQSPASLPVSLGQRATISCRASKSVSTSGSSYLHWYQQKPGQPPKLLIYLASKLESGVPARFRGSGSGTDFTLNIHPVEEEDAATYYCQHNREVPPTFGGGTKLEIK",no binding (tested: 300 nM or 600 nM),no binding (tested: 300 nM or 600 nM),506,23000
"anti-CD300LB antibody CD-16 (antibody, V domains shown) VH: QIQLVQSGPELKKPGETVKISCKASGYTFTDYSMHWVKQAPGKGLKWMAWINTETGEPTYADDFRGRFAFSLETSGRTAYLEINNLRNEDTATYFCVTYGSSYGMAYWGQGTSVTVSS VL: DIVLTQSPASLAVSLGQRATISCRASKSVSRSGYSYLHWYQQKPGQPPKLLIYLASKLESGVPARFSGSGSGTDFTLNIHPVEAEDAATYYCQHNREIPPTFGGGTKLEIK",no binding (tested: 300 nM or 600 nM),no binding (tested: 300 nM or 600 nM),504,792
"anti-CD300LB antibody CD-10 (antibody, V domains shown) VH: QVQLQQSGPELVRPGVSVKISCKGSGYTFTDYAMHWVKQSHVRSREWIGVIGTYNGHTNYNQKFKGKATMTVDKSSSTAYLELARLTSEDSAIYYCARSGSYYYSMDYWGQGTSVTVSS VL: QIVLTQSPAIMSASPGEKVTMTCSASSSVNYMHWYQQKSGTSPKRWIYDTSKLSSGVPARFSGSGSGTSYSLTISTMEAEDAATYYCQQWSSNPPMTFGGGTKLEIK",no binding (tested: 300 nM or 600 nM),no binding (tested: 300 nM or 600 nM),284,
"anti-CD300LB antibody CD-14 (antibody, V domains shown) VH: QIQLVQSGPELKKPGETVKISCKASGYTFTDYSLHWVKQTPEKNLKWMAWINTETGAPTYADDFKGRFAFSLETSSNTAYLLINNLKNEDTATYFCALTMVNYWGQGTTLTVSS VL: DIVMTQSQKFMSTSVGDRVSVTCKASQNVGIRVAWHQQKPGQSPKTLIYSTSYRYSGVPDRFTGSGSGTEFILTISNVQSEDLAEYFCQQYNSYPYTFGGGTKLEIK",no binding (tested: 300 nM or 600 nM),no binding (tested: 300 nM or 600 nM),950,19700
"anti-CD300LB antibody CD-02 (antibody, V domains shown) VH: QVQLQQPGAELVRPGSSVKLSCQASGYTFTNYWMHWVRQRPIQGLEWIGNIDPSDSETHYNQKFKDRATLTVDKSSSTAYMQLSSLTSEDSAVYYCARSGVYDDEGGDYWGQGTTLTVSS VL: ENVLTQSPAIMSASPGEKVTMTCSASSSVSYIHWYQQKSSTSPKLWIYDTSKLASGVPGRFSGSGSGNSYSLTISSMETEDVATYYCFQGSGYPLTFGAGTKLELK",,,23,

# The remaining lines, values ahead:
binding result (murine CD300E-Fc),binding result (murine CD300A-Fc),gMFI [1] [gMFI],Luminescence in BaF/3 [2],Binder
,,172,,"anti-CD300LB antibody CD-05 (antibody, V domains shown) VH: QVQLVQSGAEVKKPGASVKVSCKASGYTFSRYYINWVRQAPGQGLEWMGWINPNSGGTNYAQKFQGRVTMTRDTSTSTVYMELSSLRSEDTAVYYCTTDQLRFGKTGPYYGMDVWGQGTTVTVSS VL: DIQMTQSPSSLSASVGDRVTITCRASQNIGTYLNWYQQKPGKAPKLLIYAASSLQSGVPSRFSGSGSGTDFTLTISSLQPEDFATYYCQQSYSDTLTFGGGTKVEIK"
,,-48.7,,"anti-CD300LB antibody CD-06 (antibody, V domains shown) VH: QVQLVQSGAEVKKPGASVKVSCKASGYTFTTYAVHWVRQAPGQGLEWMGIVNPNSGGTNYAQKFQGRVTMTRDTSTSTVYMELSSLRSEDTAVYYCARDIVPMNNFYNYYYGMDVWGQGTTVTVSS VL: DIQMTQSPSSLSASVGDRVTITCRASQSISSYLNWYQQKPGKAPKLLIYATSTLQSGVPSRFSGSGSGTDFTLTISSLQPEDFATYYCQQSYRIPYTFGQGTKVEIK"
no binding (tested: 300 nM or 600 nM),no binding (tested: 300 nM or 600 nM),,22800,"anti-CD300LB antibody CD-12 (antibody, V domains shown) VH: QIQLVQSGPELKKPGETVKISCKASGYTFTDYSMHWVRQAPGKGLKWMAWINTETGEATHADDFKGRFDFSLDTSASTAYLQIKNLKNEDTGIYFCVCYGSSYGMDYWGQGTSVTVSS VL: DIVLTQSPASLPVSLGQRATISCRASKSVRTSGASYMHWYQQKPGQPPKLLIYLASNLKSGVPTRFSGSGSGTDFTLNIHPVEEEDAATYYCQHNREVPPTFGGGTKLEIK"
no binding (tested: 300 nM or 600 nM),no binding (tested: 300 nM or 600 nM),1680,24700,"anti-CD300LB antibody CD-17 (antibody, V domains shown) VH: QIQLVQSGPELKKPGETVKISCKASGYTLTDYSMHWVKQAPGKGLKWMGWINTETGEPRYGDDFKGRFAFSLETSASSAYLQINNLKNDDTATYFCATYGRSYGMDFWGQGTSVTVSS VL: DIVLTQSPASLAVSLGQRATISCRASKSVSPSGHSYMHWYQQKPGQPPKLLIYLASNLKSGVPARFSGSGSGTDFTLNIHPVEEGDAATYYCQHNRELPPTFGGGSKLEIK"
no binding (tested: 300 nM or 600 nM),no binding (tested: 300 nM or 600 nM),1190,22400,"anti-CD300LB antibody CD-13 (antibody, V domains shown) VH: QIQLVQSGPELKKPGETVKISCKASGYTFTDYSMHWVKQAPGKGFKWMAWINTETGAPTHADDFRGRFAFSLETSASTAFLQISNLKTEDTATYFCVTFGKSYGMNYWGQGTSVTVSS VL: DIVLTQSPASLSVSLGQRATISCRASKSVGSSGSSYLHWYQQKPGQPPKLLIYLASNLESGVPARFSGSGSGTEFTLNIHPVEEEDAATYYCQHNAEVPPTFGGGTKLEIK"
,,860,,"anti-CD300LB antibody CD-01 (antibody, V domains shown) VH: RVQLQQSGAELVRPGASVTLSCKASGFTFTDFEMHWVKKTPVHGLEWIGAIDPESGNTAYNQKFRGKATLTADKSSSTAYMELRYLTSEDSAVYYCTPLISGADYWGQGTTLTVSS VL: DVVMTQSPLSLPVSLGDQASISCRSSQSLVHSDGNTYLYWYLQKPGQSPKLLIYKVSNRFSGVPDRFSGSGSGTDFTFKISRVGAEDLGVYFCSQSTHVPWTFGGGTKLEII"
